Experiments:
[1] = biological target: TgMyoA heavy chain with C-terminal Bio-tag and FLAG-tag (TgMyoA-cBio-cFLAG) (Toxoplasma gondii) (UniProt O00934); assay: cell-based or functional assay

Substance	speed of actin movement, in vitro motility assay (TgMyoA with TgMLC1 only) [1]	Km for actin, steady-state actin-activated ATPase (skeletal muscle actin)
TgMLC1, Toxoplasma gondii myosin light chain MLC1 (regulatory light chain), untagged	1.5 µm/s	–
TgMyoA expressed with both light chains (TgMyoA heavy chain with bound TgMLC1 and TgELC1)	–	a Km for actin of 136±22 µM at 30 °C

Reference: patent US20160311868A1
